Earlier results in article PMC10364474.
pKd: −log10 of the molar value.

Target: integrin α5β1 (Homo sapiens) (UniProt P08648)
Chain of UniProt P08648 (P08648 42-995, chain 1 of 2): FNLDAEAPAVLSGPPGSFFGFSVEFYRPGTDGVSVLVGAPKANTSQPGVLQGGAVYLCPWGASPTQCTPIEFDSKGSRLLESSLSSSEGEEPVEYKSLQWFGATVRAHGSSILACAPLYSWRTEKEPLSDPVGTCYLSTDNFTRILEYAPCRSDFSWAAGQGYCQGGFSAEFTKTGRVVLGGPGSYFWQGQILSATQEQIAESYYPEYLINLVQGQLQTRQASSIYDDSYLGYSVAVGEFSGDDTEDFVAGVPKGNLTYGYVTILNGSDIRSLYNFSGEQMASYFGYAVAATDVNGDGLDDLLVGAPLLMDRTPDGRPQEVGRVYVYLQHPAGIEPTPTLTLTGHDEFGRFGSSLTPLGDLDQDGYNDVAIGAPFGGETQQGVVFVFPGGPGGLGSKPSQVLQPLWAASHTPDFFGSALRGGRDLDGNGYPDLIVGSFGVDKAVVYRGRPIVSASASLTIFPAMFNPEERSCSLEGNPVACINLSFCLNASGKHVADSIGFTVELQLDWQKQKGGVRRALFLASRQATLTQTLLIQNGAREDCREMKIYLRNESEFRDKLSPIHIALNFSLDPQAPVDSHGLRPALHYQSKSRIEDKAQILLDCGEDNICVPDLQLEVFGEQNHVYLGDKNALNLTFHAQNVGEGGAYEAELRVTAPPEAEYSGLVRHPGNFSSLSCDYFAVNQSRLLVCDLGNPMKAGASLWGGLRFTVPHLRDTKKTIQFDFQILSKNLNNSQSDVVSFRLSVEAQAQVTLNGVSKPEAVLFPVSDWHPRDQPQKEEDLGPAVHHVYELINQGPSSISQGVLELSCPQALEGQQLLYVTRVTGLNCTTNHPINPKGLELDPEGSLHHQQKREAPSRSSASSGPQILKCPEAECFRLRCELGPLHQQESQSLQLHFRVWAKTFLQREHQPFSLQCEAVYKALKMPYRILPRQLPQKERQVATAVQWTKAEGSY
Chain of UniProt P08648 (P05556 21-728, chain 2 of 2, further chain): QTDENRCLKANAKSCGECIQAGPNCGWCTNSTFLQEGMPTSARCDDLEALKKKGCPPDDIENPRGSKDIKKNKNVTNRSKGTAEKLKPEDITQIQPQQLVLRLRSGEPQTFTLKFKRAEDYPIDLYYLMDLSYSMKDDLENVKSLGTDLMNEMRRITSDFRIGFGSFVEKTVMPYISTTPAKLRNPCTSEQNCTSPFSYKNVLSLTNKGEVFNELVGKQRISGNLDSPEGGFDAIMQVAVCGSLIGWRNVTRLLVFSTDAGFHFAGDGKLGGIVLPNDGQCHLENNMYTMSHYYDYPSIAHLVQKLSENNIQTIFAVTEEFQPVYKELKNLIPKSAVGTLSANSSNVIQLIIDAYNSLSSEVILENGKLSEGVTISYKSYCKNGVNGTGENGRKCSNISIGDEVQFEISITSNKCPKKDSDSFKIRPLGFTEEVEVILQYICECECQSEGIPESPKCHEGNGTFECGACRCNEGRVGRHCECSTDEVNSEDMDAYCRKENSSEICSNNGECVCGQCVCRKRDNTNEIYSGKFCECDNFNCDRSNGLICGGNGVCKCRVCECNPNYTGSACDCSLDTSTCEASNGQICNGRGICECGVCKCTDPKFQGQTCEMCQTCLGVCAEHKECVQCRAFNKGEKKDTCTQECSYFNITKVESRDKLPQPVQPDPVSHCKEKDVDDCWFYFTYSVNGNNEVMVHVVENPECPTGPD

Fibrinogen alpha chain RGD 572-574 (from UniProt P02671)
pKd: 7.19
